B1: TPR t1 (parent)
chain: GACCAAUCUGCCCUCAGAGCUCGAGAACAUCUUCGGAUGCAGAGGAGGCAGGCUUCGGUGGCGCGAUAGCGCCAACGUCCUCAACCUCCAAUGCAUCCCACCACAUGAUGAUGCCUGAAGAGCCUUGGUUUUUUG

The variants in this data set derive from B1. Nature of the data set: polymerase ribozyme fitness, log enrichment relative to wild type (log ratio); higher = more active; in vitro selection for triplet polymerase activity. The method, boiled down:
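Fitness measures genotype enrichment against wild-type enrichment on a logarithmic scale, with inverse-variance-weighted averaging of replicates. The logarithm is base 2, and genotypes were kept only with ≥10 input reads and ≥1 read per output in Illumina sequencing. The sequenced libraries came from one triplicate in vitro selection round, including frozen incubation at −7 °C, of PCR-built, transcribed mutant libraries of each subunit of a heterodimeric triplet polymerase ribozyme.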
With G51U G71C, the “polymerase ribozyme fitness (log ratio)” value is -5.37.

For G52U G57C C97G C114A A119U, the “polymerase ribozyme fitness (log ratio)” value was -6.02.

For the variant G52U G60U, the “polymerase ribozyme fitness (log ratio)” value was -0.578.

Consider C49G C85A G113U, for which the “polymerase ribozyme fitness (log ratio)” value is -4.81.

With A50C G63A U81A, the “polymerase ribozyme fitness (log ratio)” value is -0.41.

Regarding G52A C73U C82U, the “polymerase ribozyme fitness (log ratio)” value was -0.555.

Regarding C49U G110U, the “polymerase ribozyme fitness (log ratio)” value is -2.6.

With C49U C115A, the “polymerase ribozyme fitness (log ratio)” value is -0.871.

Regarding A50C G113U, the “polymerase ribozyme fitness (log ratio)” value was -3.73.

Consider A50U U112A U125C, for which the “polymerase ribozyme fitness (log ratio)” value is -0.475.

For C49G C80U, the “polymerase ribozyme fitness (log ratio)” value is -3.42.

As to G52U C86G C89G G113C C114U A118G, the “polymerase ribozyme fitness (log ratio)” value was -4.62.

With C49U A95U C102A, the “polymerase ribozyme fitness (log ratio)” value was -3.2.

Take G51C G52U C102A C124A: the “polymerase ribozyme fitness (log ratio)” value is -4.54.

For G52A C53A A74G A90G, the “polymerase ribozyme fitness (log ratio)” value turned out to be 0.00151.

C49A G71U U78A G120C: the “polymerase ribozyme fitness (log ratio)” value is 0.393.

G52A G60U C104G: the “polymerase ribozyme fitness (log ratio)” value was -7.51.

Consider G52A C115U, for which the “polymerase ribozyme fitness (log ratio)” value was -2.

Take G51U U59A: the “polymerase ribozyme fitness (log ratio)” value is -2.98.

On to G52A C72G G128C U130G, for which the “polymerase ribozyme fitness (log ratio)” value was -1.87.

A50G G60C: the “polymerase ribozyme fitness (log ratio)” value was -1.81.

For C49U G77U C123G, the “polymerase ribozyme fitness (log ratio)” value turned out to be 0.718.

As to A50U C62U C80U A84G A95U, the “polymerase ribozyme fitness (log ratio)” value was -6.37.

As to A50G C86A C115G, the “polymerase ribozyme fitness (log ratio)” value is -2.42.

Turning to G51A U81C C97U C115G, the “polymerase ribozyme fitness (log ratio)” value was -5.02.

C49U C86U C97U G117C C124A: the “polymerase ribozyme fitness (log ratio)” value was -4.42.

Take C49U A50C A111G: the “polymerase ribozyme fitness (log ratio)” value came out at 0.0314.

A50C C73A U78G A90G: the “polymerase ribozyme fitness (log ratio)” value was -1.98.

Consider C49G G51A U54G, for which the “polymerase ribozyme fitness (log ratio)” value is -4.1.

Consider G51C C53G G61U, for which the “polymerase ribozyme fitness (log ratio)” value was -2.56.

As to C49A G60C G127A U131A, the “polymerase ribozyme fitness (log ratio)” value is -3.76.

In the case of C49A G52C U96C, the “polymerase ribozyme fitness (log ratio)” value was -0.622.

As to G51A G60A, the “polymerase ribozyme fitness (log ratio)” value is -1.34.

Regarding C49U G93A, the “polymerase ribozyme fitness (log ratio)” value was -1.33.

For G52U C53A, the “polymerase ribozyme fitness (log ratio)” value was -1.2.

As for G51U G71C U109G G117U C124G, the “polymerase ribozyme fitness (log ratio)” value is -7.73.

A50U C56A G69C C80G C104G C115G C123U U130C: the “polymerase ribozyme fitness (log ratio)” value was -8.59.

Consider A50G C88A C97G, for which the “polymerase ribozyme fitness (log ratio)” value is -4.42.

With A50C C73A U92G U112A G135A, the “polymerase ribozyme fitness (log ratio)” value is -3.24.

For the variant C49G G60U U78C C97A, the “polymerase ribozyme fitness (log ratio)” value is -5.83.

For the variant G51A U112C, the “polymerase ribozyme fitness (log ratio)” value was -2.05.

As to G51A U112G, the “polymerase ribozyme fitness (log ratio)” value is -3.74.

G52U G61C U131A: the “polymerase ribozyme fitness (log ratio)” value was -1.22.

As for G51U C56A G69U U106C, the “polymerase ribozyme fitness (log ratio)” value was -1.79.

As to C49G G69A A100C C101U, the “polymerase ribozyme fitness (log ratio)” value was -5.56.

Consider C49A U78A, for which the “polymerase ribozyme fitness (log ratio)” value was -1.14.

Turning to G52C C72A, the “polymerase ribozyme fitness (log ratio)” value was -1.99.

Take C49G U125A: the “polymerase ribozyme fitness (log ratio)” value was -0.51.

For C49U U106G, the “polymerase ribozyme fitness (log ratio)” value was -2.35.

A50G G113U U131A: the “polymerase ribozyme fitness (log ratio)” value is -4.11.

As to C49G G135U, the “polymerase ribozyme fitness (log ratio)” value is -1.27.

With G51U G117U, the “polymerase ribozyme fitness (log ratio)” value is -5.83.

As for A50C G71U U130A, the “polymerase ribozyme fitness (log ratio)” value is -0.942.

On to G52C A119G C124U, for which the “polymerase ribozyme fitness (log ratio)” value stood at 1.65.

Turning to A50G C56A C82A U131C, the “polymerase ribozyme fitness (log ratio)” value is -1.25.

With A50C U78G G110C G120A C124U, the “polymerase ribozyme fitness (log ratio)” value is -4.98.

Regarding C49G U55C A95C C98U, the “polymerase ribozyme fitness (log ratio)” value is -3.54.

With A50U C56A C82G U87G G117A U132A, the “polymerase ribozyme fitness (log ratio)” value is -4.26.

On to C49U C104U C124A, for which the “polymerase ribozyme fitness (log ratio)” value amounted to 1.02.

For the variant A50C G61U C79A, the “polymerase ribozyme fitness (log ratio)” value is -2.63.

G51A C64A: the “polymerase ribozyme fitness (log ratio)” value was -6.96.

With C49U G107A G120C U130G, the “polymerase ribozyme fitness (log ratio)” value was -6.54.

On to C49U A90G, for which the “polymerase ribozyme fitness (log ratio)” value came to 0.52.

For the variant G52A G69U U78A C89U G128U, the “polymerase ribozyme fitness (log ratio)” value was -2.93.

Take G51U U87C C123A: the “polymerase ribozyme fitness (log ratio)” value is -2.59.

With G51C C79A G117A U133G, the “polymerase ribozyme fitness (log ratio)” value was -5.7.

For the variant G51U A111C, the “polymerase ribozyme fitness (log ratio)” value was -4.77.

G51U A111U: the “polymerase ribozyme fitness (log ratio)” value was -6.02.

Take A50U C94U: the “polymerase ribozyme fitness (log ratio)” value was -0.732.

As for G52U C56U, the “polymerase ribozyme fitness (log ratio)” value was -2.1.

For G52U C70U, the “polymerase ribozyme fitness (log ratio)” value is -1.49.

Turning to G52A U59A, the “polymerase ribozyme fitness (log ratio)” value came out at 0.487.

With C49G G63U, the “polymerase ribozyme fitness (log ratio)” value was -2.09.

C49A U87C: the “polymerase ribozyme fitness (log ratio)” value was 0.179.

In the case of G51U U116C, the “polymerase ribozyme fitness (log ratio)” value was -4.25.

In the case of C49U U132A, the “polymerase ribozyme fitness (log ratio)” value was -0.342.

In the case of G51A C62U, the “polymerase ribozyme fitness (log ratio)” value was -2.43.

For C49U U54G U59A C79U C101A G113U, the “polymerase ribozyme fitness (log ratio)” value is -5.96.

In the case of G51U C82G A83U U87A, the “polymerase ribozyme fitness (log ratio)” value is -1.52.

Take G52A A66G: the “polymerase ribozyme fitness (log ratio)” value is -1.47.

C49G U109A U112A: the “polymerase ribozyme fitness (log ratio)” value is -5.85.

For A50U G60A G93A, the “polymerase ribozyme fitness (log ratio)” value was -1.39.

Regarding C49A C101G C115A G120A, the “polymerase ribozyme fitness (log ratio)” value was -2.2.

In the case of C49U C72U, the “polymerase ribozyme fitness (log ratio)” value is -0.879.

The values are drawn from the RNAGym collection of RNA variant scans (doi:10.1073/pnas.2313332121).
